According to the supplement of paper PMC7125110:
± gives the standard error. Variants at the floor of the assay were thinned out.

B1: glmS ribozyme (parent)
chain: AUAAAAGCGCCAGAACUACAGAAAUGUAGUUGACGAGGAGGAGGUUUAUCGAAUUUUCGGCGGAUGCCUCCAAA

What was measured:
Conditions in all cases: with glucosamine-6-phosphate
glucosamine-6-phosphate [1] = variants of: B1; test: self-cleavage kobs at 160 uM GlcN6P; higher = faster cleavage; RNA array
In short: (§1)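 kcat and KM were obtained from weighted Michaelis–Menten fits across concentrations of kobs values. Those came from one- or two-exponential decay fits to per-tile medians normalised to baseline and to non-cleaving reference variants. The variants were barcoded ribozymes transcribed in situ by E. coli RNA polymerase on sequenced MiSeq chips and tracked through a hybridised Cy3 probe at 37 °C, with 40 μM to 10 mM glucosamine-6-phosphate in HEPES/KCl/Mg(OAc)2 buffer flowed in.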

glucosamine-6-phosphate [2] = variants of: B1; test: self-cleavage kobs at 640 uM GlcN6P; higher = faster cleavage; RNA array
In short: as §1

glucosamine-6-phosphate [3] = variants of: B1; test: self-cleavage kobs at 2500 uM GlcN6P; higher = faster cleavage; RNA array
In short: as §1

glucosamine-6-phosphate [4] = variants of: B1; test: self-cleavage kobs at 10000 uM GlcN6P; higher = faster cleavage; RNA array
In short: as §1

Variant	self-cleavage kobs at 160 uM GlcN6P (glucosamine-6-phosphate [1]) [s⁻¹]	self-cleavage kobs at 640 uM GlcN6P (glucosamine-6-phosphate [2]) [s⁻¹]	self-cleavage kobs at 2500 uM GlcN6P (glucosamine-6-phosphate [3]) [s⁻¹]	self-cleavage kobs at 10000 uM GlcN6P (glucosamine-6-phosphate [4]) [s⁻¹]
A14C G38C	< 1e-05	< 1e-05	< 1e-05	< 1e-05
G29A G60A	< 1e-05	< 1e-05		
U30G G32A G35A C67U	< 1e-05	< 1e-05		
A14G C16U U46C	0.000248 ± 7.7e-05			
C16A C34G U49A C50A	< 1e-05			
A33C C34G G40U A48U C61A	< 1e-05	< 1e-05	< 1e-05	
A15G U31C U45C U49A	< 1e-05	< 1e-05	< 1e-05	
A12U U47C U65C	< 1e-05			
A15G A33C A64U	< 1e-05		< 1e-05	
C16U A42G A48U G66U	< 1e-05	< 1e-05		
C16G A48G C68A C71G	5.61e-05 ± 2.2e-05	0.000118 ± 3.8e-05		
A14C G29U C50U A52G C58G	0.000474 ± 0.00018		7.98e-05 ± 3.9e-05	
G32U G43U	< 1e-05		< 1e-05	
A14C C16G G38A A48G U49A	< 1e-05			
G13U A14U U57C	< 1e-05		< 1e-05	
G32A A53C C71U	3.67e-05 ± 1.6e-05	7.17e-05 ± 2.3e-05	0.000197 ± 4.7e-05	
A14G C16U C34A G41A A52C	< 1e-05		< 1e-05	
A14G U45G A53U	0.000618 ± 0.00016	0.00262 ± 0.00057	0.00337 ± 0.0012	
G13U U47G A52C	< 1e-05		< 1e-05	
G29C G35A G59U A64G	< 1e-05			

Variant	self-cleavage kobs at 160 uM GlcN6P (glucosamine-6-phosphate [1]) [s⁻¹]	self-cleavage kobs at 640 uM GlcN6P (glucosamine-6-phosphate [2]) [s⁻¹]	self-cleavage kobs at 2500 uM GlcN6P (glucosamine-6-phosphate [3]) [s⁻¹]	self-cleavage kobs at 10000 uM GlcN6P (glucosamine-6-phosphate [4]) [s⁻¹]
U30A U31C G60A C71A	< 1e-05			
U31G U45G U49A U56A	< 1e-05			< 1e-05
U31C G41A G59U	< 1e-05	< 1e-05	< 1e-05	
A15G C16G U55A	0.000205 ± 6e-05	0.000405 ± 0.00011	0.00143 ± 0.0004	
C16G G41U U54A	< 1e-05			
C16U C58G C68G	0.000169 ± 4.4e-05	0.000132 ± 3.4e-05	7.79e-05 ± 1.5e-05	
U30G G63A	< 1e-05	< 1e-05	< 1e-05	< 1e-05
G32C C34A C61U C67U	< 1e-05			
U30G U54G U56G	0.00021 ± 5.7e-05	0.000994 ± 0.00019	0.00255 ± 0.00053	
U30A A39C U55C	4.87e-05 ± 1.3e-05	0.00025 ± 4.5e-05	0.000864 ± 0.00021	
C16U C50U U69G	7.48e-05 ± 1.8e-05	7.53e-05 ± 1.8e-05	7.21e-05 ± 1.6e-05	
A15U U55G A64G	0.000233 ± 5.2e-05			
C16A G59U C68G	0.000107 ± 3e-05			
A33C A39C A52U C70U	< 1e-05	< 1e-05		
A15U C34A A64G	< 1e-05		< 1e-05	
A14U C34A G60A C61A	< 1e-05			< 1e-05
G29C G41U G63C C68A	< 1e-05	< 1e-05	< 1e-05	
A12U G51A U55C	< 1e-05			
A15G C16A G60U	< 1e-05	< 1e-05	< 1e-05	
U30C U46G U54A	< 1e-05			

Variant	self-cleavage kobs at 160 uM GlcN6P (glucosamine-6-phosphate [1]) [s⁻¹]	self-cleavage kobs at 640 uM GlcN6P (glucosamine-6-phosphate [2]) [s⁻¹]	self-cleavage kobs at 2500 uM GlcN6P (glucosamine-6-phosphate [3]) [s⁻¹]	self-cleavage kobs at 10000 uM GlcN6P (glucosamine-6-phosphate [4]) [s⁻¹]
A15G C34U G63A	< 1e-05		< 1e-05	
G13A U46G A48G G59A	< 1e-05		< 1e-05	< 1e-05
C16U A52G C71G	0.000103 ± 3.1e-05	5.85e-05 ± 1.3e-05	0.000175 ± 3.2e-05	
A15U G60U C61U	< 1e-05			
G13C A15U G51U C67U C68G	6.58e-05 ± 2.5e-05			
U31A G62C C71U	< 1e-05	< 1e-05		
G29U G60U	< 1e-05	< 1e-05	< 1e-05	< 1e-05
G29C A33C C61A	< 1e-05			
A12U A15G C16G U30C A33U A48G G66A	< 1e-05	< 1e-05		
G29U U31A U56A C67A	2.97e-05 ± 1.5e-05			0.00027 ± 5.8e-05
A14C G40U G59U C61U	< 1e-05			
A15G G63A	< 1e-05	< 1e-05	< 1e-05	< 1e-05
G32A A42G G43C G51U G66C	< 1e-05	< 1e-05		
G26A C70A	0.000106 ± 2.6e-05			
U30G C50G C58G G60U C61G	0.000251 ± 7.4e-05	0.00014 ± 2.9e-05	0.00022 ± 6.9e-05	
G32C A39C U45A U56G	< 1e-05			
G13C A14C G51A G66U	< 1e-05		< 1e-05	
G29U G32A G37U G66A	< 1e-05	< 1e-05	< 1e-05	
A15U G37U	< 1e-05			< 1e-05
